These results are taken from patent US7030231 (University of California, dated 2006).

The target of data set [1] is T1, His-tagged MT-SP1 protease domain (refolded, autoactivated, purified on p-aminobenzamidine resin) (human, UniProt Q9Y5Y6 615-855).
T1 construct: The split 596-614 / 615-855 follows from the stated construct limits and the stated cleavage site; also called His-MT-SP1 protease domain; MT-SP1 His-tagged protease domain
T1 sequence 1: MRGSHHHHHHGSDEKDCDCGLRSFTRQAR
T1 sequence 2: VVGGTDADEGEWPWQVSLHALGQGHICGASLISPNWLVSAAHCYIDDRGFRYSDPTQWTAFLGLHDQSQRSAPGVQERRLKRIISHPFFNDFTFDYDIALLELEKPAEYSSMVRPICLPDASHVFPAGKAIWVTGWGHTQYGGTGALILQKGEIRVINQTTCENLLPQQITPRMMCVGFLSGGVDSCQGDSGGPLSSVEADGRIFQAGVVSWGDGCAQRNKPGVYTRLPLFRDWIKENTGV
Description: apparent Ki; inhibition of Spectrozyme tPA hydrolysis by 63 pM enzyme, fit to the tight-binding reversible inhibitor equation. On the procedure:
Ecotin and ecotin M84R/M85R were purified from *E. coli* as described in copending application Ser. Nos. 09/290,513 and 09/289,830, both filed on Apr. 12, 1999. Various concentrations of ecotin or ecotin M84R/M85R were incubated with the His-tagged serine protease domain in a total volume of 990 μL of buffer containing 50 mM NaCl, 50 mM Tris-HCl (pH 8.8), 0.01% Tween 20. 10 μL of Spectrozyme tPA was added, yielding a solution containing 100 μM substrate. The final enzyme concentration was 63 pM, and the ecotin and ecotin M84R/M85R concentration ranged from 0.1 nM to 50 nM. The data were fit to the equation derived for kinetics of reversible tight-binding inhibitors (Morrison (1969) *Biochim. Biophys. Acta* 185: 269–286, Williams and Morrison (1979) *Methods. Enzymol.* 63: 437–467), and the values for apparent K_i were determined.
The enzyme concentration was determined using an active site titration with MUGB. The catalytic activity of the protease domain was monitored using pNA substrates. Purified protease domain was tested for hydrolytic activity against tetrapeptide substrates of the form Suc-AAPX-pNA, which contained various amino acids at the P1 position (P1-Ala, Asp, Glu, Phe, Leu, Met, Lys, or Arg). The only substrates with detectable activity were those with P1-Lys or P1-Arg. The serine protease domain with the Ser^805Ala mutation had no detectable activity. […]

The target in data set [2] is T2, inactive Ser805Ala His-tagged MT-SP1 protease domain.
T2 chain: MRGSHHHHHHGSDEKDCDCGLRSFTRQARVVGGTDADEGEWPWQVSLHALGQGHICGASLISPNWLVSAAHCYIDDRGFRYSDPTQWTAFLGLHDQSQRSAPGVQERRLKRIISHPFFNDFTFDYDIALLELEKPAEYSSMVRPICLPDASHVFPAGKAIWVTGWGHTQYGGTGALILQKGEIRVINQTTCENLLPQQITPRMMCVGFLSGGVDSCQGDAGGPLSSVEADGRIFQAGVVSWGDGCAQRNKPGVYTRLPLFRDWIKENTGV

B1: ecotin M84R/M85R (other, E. coli (purified from E. coli), UniProt P23827 21-162, looked up)
chain: AESVQPLEKIAPYPQAEKGMKRQVIQLTPQEDESTLKVELLIGQTLEVDCNLHRLGGKLENKTLEGWGYDYYVFDKVSSPVSTRRACPDGKKEKKFVTAYLGDAGMLRYNSKLPIVVYTPDNVDVKYRVWKAEEKIDNAVVR
notes: They probably count on mature ecotin, not on the precursor with its signal peptide
Regarding B1, in data set [1], the Ki was determined as 9.8 pM.

B2: His-tagged MT-SP1 protease domain (refolded, autoactivated, purified on p-aminobenzamidine resin) (protein)
chain 1: MRGSHHHHHHGSDEKDCDCGLRSFTRQAR
chain 2: VVGGTDADEGEWPWQVSLHALGQGHICGASLISPNWLVSAAHCYIDDRGFRYSDPTQWTAFLGLHDQSQRSAPGVQERRLKRIISHPFFNDFTFDYDIALLELEKPAEYSSMVRPICLPDASHVFPAGKAIWVTGWGHTQYGGTGALILQKGEIRVINQTTCENLLPQQITPRMMCVGFLSGGVDSCQGDSGGPLSSVEADGRIFQAGVVSWGDGCAQRNKPGVYTRLPLFRDWIKENTGV
As for B2, the “cleavage monitored by SDS-PAGE” value in data set [2] is “This treatment results in the formation of a cleavage product that corresponds to the size of the active protease”.
